We go through 2 substances from article doi:10.1101/2022.03.01.482405.

The target of assay [1] is Photosystem I protomer from Thermosynechococcus elongatus BP-1 (His10-tag on PsaF) (Thermosynechococcus elongatus BP-1) (UniProt P0A405). The assay is described as follows: cryo-EM structure.
Assay [2] concerns the target Photosystem I trimer from Thermosynechococcus elongatus BP-1 (His10-tag on PsaF) (Thermosynechococcus elongatus BP-1) (UniProt P0A405). The assay is described as follows: ITC. On the technique in general: In ITC the heat of successive injections is recorded.

On to “Photosystem I protomer from Thermosynechococcus elongatus BP-1 (His10-tag on PsaF) (from UniProt P0A405;P0A407;P0A415;P0A420;P0A423;P0A401;P0A427;P0A429;P0A425;Q8DGB4;P0A403) (complex)”, for which, in assay [1], the stoichiometry N (commonly the number of molecules, sites or subunits per partner or assembly) was 3.
Regarding “gallium-substituted ferredoxin from Thermosynechococcus elongatus BP-1 (from UniProt P0A3C9) (natural protein)”, in assay [2], the Kd (in general, the equilibrium constant for the complex coming apart) was 800 µM.
